Source: US20180282426A1 (NOVIMMUNE S A, published 2018)

What was measured:
[1] = target: T1, human TLR4 alone in transfected HEK 293 cells (human, UniProt O00206 24-839); experiment: sandwich ELISA, capture on anti-FLAG M2, biotinylated 18H10
T1 construct: whole, on cells; also called TLR4 alone in transfected cell lysates
Description: (§1) For sample preparation, HEK 293 cells were transfected with the appropriate plasmid constructs using the Fugene 6™ transfection reagent as described in paragraph G above. 48 hours post-transfection, cells were collected and cleared by centrifugation. Cells were subsequently incubated with biotinylated 18H10 (10 μg/ml) and lysed in 20 mM Tris pH 7.4, 150 mM NaCl, 1% NP40 containing COMPLETE™ protease inhibitors (Roche).
(§2) To perform the sandwich ELISA, Nunc maxisorp plate wells were coated with 50 μl of the anti-FLAG™ M2 MAb (Sigma) at a concentration of 5 μg/ml in PBS. Wells were blocked with 200 μl PBS 2% BSA and subsequently incubated with 50 μl of the appropriate samples at the indicated dilution. Wells were washed three times with 200 μl PBS 0.05% Tween 20 and incubated with 50 μl of the appropriate antibody (10 μg/ml for biotinylated 18H10 and 12D4, 1 μg/ml for the polyclonal anti-MD-2 […]). Following a wash step as above, wells were incubated with 50 μl of the appropriate detection antibody (HRP conjugated streptavidin at a dilution of 1:1500 for the biotinylated MAbs and HRP conjugated anti-rabbit IgG (H+L) at a dilution of 1:5000 for the polyclonal rabbit Ab). […] Plates were read at a wavelength of 650 nm.

[2] = target: T2, MD-2 alone in transfected HEK 293 cell lysates/supernatants (UniProt Q9Y6Y9 19-160, limits assumed); experiment: as above
T2 construct: not shown: C-terminal FLAG and 6x Histidine tags
T2 sequence (looked up): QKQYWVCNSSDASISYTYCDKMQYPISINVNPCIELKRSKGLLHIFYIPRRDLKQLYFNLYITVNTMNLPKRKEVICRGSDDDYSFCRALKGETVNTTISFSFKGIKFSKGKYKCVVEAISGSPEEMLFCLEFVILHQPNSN
Description: as §1, §2

[3] = target: T3, human TLR4 and human MD-2 on transiently transfected HEK 293 cells (human, UniProt O00206 24-839; Q9Y6Y9 19-160); experiment: FACS on transiently transfected HEK 293 cells
T3 construct: whole, on cells; also called human TLR4/MD-2 complex
T3 sequence (O00206 24-839, one chain of several): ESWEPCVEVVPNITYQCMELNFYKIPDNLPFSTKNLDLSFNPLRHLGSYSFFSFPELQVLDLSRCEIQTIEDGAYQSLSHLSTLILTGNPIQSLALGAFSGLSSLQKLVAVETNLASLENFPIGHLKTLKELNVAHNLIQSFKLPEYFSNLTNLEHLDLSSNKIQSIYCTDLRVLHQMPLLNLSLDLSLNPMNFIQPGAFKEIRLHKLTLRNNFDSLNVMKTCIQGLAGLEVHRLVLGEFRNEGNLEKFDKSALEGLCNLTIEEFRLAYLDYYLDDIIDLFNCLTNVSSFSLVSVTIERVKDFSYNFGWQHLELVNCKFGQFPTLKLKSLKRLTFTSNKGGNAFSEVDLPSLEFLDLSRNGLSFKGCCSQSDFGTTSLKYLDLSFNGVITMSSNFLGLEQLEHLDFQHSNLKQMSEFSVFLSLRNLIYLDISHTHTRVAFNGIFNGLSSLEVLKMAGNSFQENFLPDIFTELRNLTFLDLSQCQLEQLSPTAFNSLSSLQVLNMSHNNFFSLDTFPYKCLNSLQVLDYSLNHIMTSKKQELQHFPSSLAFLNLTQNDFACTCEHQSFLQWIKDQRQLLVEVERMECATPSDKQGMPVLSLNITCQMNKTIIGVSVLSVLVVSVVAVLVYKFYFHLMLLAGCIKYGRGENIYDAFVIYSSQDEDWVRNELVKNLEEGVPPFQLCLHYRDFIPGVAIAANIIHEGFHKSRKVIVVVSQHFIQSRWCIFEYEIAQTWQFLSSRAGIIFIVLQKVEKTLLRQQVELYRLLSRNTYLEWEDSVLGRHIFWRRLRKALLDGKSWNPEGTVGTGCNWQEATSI
Description: FIGS. 4A-4L are a series of graphs depicting the specificity of the 18H10 monoclonal antibody for MD-2. The specificity of the 18H10 antibody is shown by flow cytometry analysis of HEK 293 cells transiently transfected with either human TLR4 and human MD-2 (FIG. 4A, FIG. 4E and FIG. 4I); rabbit TLR4 and rabbit MD-2 (FIG. 4B, FIG. 4F and FIG. 4J); human TLR4 and rabbit MD-2 (FIG. 4C, FIG. 4G and FIG. 4K); or rabbit TLR4 and human MD-2 (FIG. 4D, FIG. 4H and FIG. 4L). Cells were incubated with either α-FLAG™ antibody (to detect TLR4 expression); α-C-myc antibody (to detect MD-2 expression) or the 18H10 monoclonal antibody, followed by an APC-coupled α-mouse (H+L) antibody.
FIGS. 12A-12L is a series of graphs depicting the specificity of the 16G7 monoclonal antibody for TLR4. […]
HEK 293 cells were plated in 6 well plates at a density of 2.5×10⁵ cells/well in 2 ml culture medium containing 10% FBS. […] 48 hours post-transfection, cells were stained with the appropriate monoclonal antibody (as indicated in FIGS. 4A-4L) and an APC-coupled goat anti-mouse IgG (H+L) antibody (Molecular Probes) and analyzed using the FACScalibur in the FL-4 channel.

[4] = target: T4, human TLR4/MD-2 complex in transfected HEK 293 cells (FLAG-TLR4 with MD-2-FLAG-6xHis) (human, UniProt O00206 24-839; Q9Y6Y9 19-160); experiment: sandwich ELISA, capture on anti-FLAG M2, biotinylated 18H10 with streptavidin-HRP
T4 construct: whole, on cells; also called TLR4/MD-2 transfected HEK 293 cells; hTLR4/MD-2 transfected HEK 293 cells
T4 sequence (O00206 24-839, one chain of several): as above
Description: as §1, §2

[5] = target: T5, human TLR4/MD-2 complex on the surface of transfected CHO cells (human, UniProt O00206 24-839; Q9Y6Y9 19-160); experiment: flow cytometry, mock transfected vs. TLR4/MD-2 transfected cells
T5 construct: whole, on cells; also called TLR4/MD-2 transfected CHO cells; hTLR4/MD-2 transfected CHO cells
T5 sequence (O00206 24-839, one chain of several): as above

[6] = target: T6, recombinant soluble MD-2 purified from baculovirus-infected insect cell supernatants (UniProt Q9Y6Y9 19-160); experiment: direct ELISA, MD-2 coated at 5 ug/ml
T6 construct: Expressed in Sf9 cells, purified on NiNTA, coated at 5 ug/ml in the direct ELISA; not shown: C-terminal FLAG and 6xHIS tags
T6 sequence (looked up): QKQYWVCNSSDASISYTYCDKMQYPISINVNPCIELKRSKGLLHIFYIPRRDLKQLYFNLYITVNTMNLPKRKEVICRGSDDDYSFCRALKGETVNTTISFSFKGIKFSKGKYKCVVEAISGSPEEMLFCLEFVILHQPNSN
Description: Recombinant soluble MD-2 with C terminal FLAG and histidine epitope tags was coated at a concentration of 5 μg/ml in 50 μl PBS on ELISA plates (Nunc Maxisorp). Wells were blocked with 200 μl PBS 2% BSA and subsequently incubated with the appropriate MAb at the indicated concentration in PBS 1% BSA. Following 3 wash steps with PBS 0.05% Tween 20, 50 μl HRP conjugated goat anti-mouse IgG (H+L) at a 1:5000 dilution was added to the wells. […] Plates were read at a wavelength of 650 nm.
Using direct ELISA, no binding of 18H10 to recombinant soluble MD-2 generated with the baculovirus expression system was detected (FIG. 5a).

T1 sequence (O00206 24-839): as the sequence (O00206 24-839, one chain of several) above

B1: 18H10 monoclonal antibody (antibody, IgG2b, V domains shown)
VH: QVQLQQSGADLVRPGALVKLSCTASGFNIKDSYIHWVKKRPEWGLEWIGWTDPENVNSIYDPRFQGKASITADTSSNTAFLQLTSLTSEDTAVYYCARGYNGVYYAMDYWGQGTTVTVSS
VL: QIVLTQSPSIMSASLGEEITLTCSASSSVIYMHWYQQKSGTSPKLLIYRTYNLASGVPSRFSGSGSGTFYSLTISSVEAEDAADYYCHQWSSFPYTFGGGTKLEIKR
notes: also called 18H10 MAb; 18H10 mouse MAb
binding result [1]: no binding (tested: 10 µg/ml biotinylated 18H10) | binding result [2]: no binding (tested: 10 µg/ml biotinylated 18H10) | binding result [3]: binds | binding result [4]: binds | binding result [5]: binds | binding result [6]: no binding
